Values quoted from earlier work in publication PMC11401910, “Dual client binding sites in the ATP-independent chaperone SurA” (Nature Communications, 2024).

Molecular target: OmpX (Escherichia coli) (UniProt P0A917)
Conditions: cited from earlier work

OmpX (Escherichia coli), sequence (P0A917 24-171): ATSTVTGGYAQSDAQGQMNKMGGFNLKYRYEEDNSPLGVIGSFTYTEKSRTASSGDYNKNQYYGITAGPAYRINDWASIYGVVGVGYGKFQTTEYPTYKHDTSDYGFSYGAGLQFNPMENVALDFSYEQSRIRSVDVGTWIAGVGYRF
SurA, sequence (P0ABZ6 21-428): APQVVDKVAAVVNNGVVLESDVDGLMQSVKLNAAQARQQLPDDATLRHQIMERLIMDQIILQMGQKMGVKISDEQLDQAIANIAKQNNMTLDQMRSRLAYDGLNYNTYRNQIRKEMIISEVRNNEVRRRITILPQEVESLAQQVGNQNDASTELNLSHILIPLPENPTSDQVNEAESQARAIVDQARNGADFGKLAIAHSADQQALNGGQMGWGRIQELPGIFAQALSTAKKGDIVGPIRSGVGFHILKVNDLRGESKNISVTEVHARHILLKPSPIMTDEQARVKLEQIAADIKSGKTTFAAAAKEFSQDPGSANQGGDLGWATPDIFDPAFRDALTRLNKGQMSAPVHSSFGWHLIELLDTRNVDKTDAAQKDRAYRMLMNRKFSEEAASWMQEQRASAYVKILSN

In the case of SurA (from UniProt P0ABZ6), the Kd is given as 1000 nM.
